The values below come from paper PMC7619307, “The Golgi vesicle tether p115 can bind directly to the ER exit site organiser Sec16A” (Journal of cell science, 2026).

The experiment deals with T1, FLAG-tagged p115 head domain (1–655) (human, UniProt O60763 1-655).
T1 sequence (looked up): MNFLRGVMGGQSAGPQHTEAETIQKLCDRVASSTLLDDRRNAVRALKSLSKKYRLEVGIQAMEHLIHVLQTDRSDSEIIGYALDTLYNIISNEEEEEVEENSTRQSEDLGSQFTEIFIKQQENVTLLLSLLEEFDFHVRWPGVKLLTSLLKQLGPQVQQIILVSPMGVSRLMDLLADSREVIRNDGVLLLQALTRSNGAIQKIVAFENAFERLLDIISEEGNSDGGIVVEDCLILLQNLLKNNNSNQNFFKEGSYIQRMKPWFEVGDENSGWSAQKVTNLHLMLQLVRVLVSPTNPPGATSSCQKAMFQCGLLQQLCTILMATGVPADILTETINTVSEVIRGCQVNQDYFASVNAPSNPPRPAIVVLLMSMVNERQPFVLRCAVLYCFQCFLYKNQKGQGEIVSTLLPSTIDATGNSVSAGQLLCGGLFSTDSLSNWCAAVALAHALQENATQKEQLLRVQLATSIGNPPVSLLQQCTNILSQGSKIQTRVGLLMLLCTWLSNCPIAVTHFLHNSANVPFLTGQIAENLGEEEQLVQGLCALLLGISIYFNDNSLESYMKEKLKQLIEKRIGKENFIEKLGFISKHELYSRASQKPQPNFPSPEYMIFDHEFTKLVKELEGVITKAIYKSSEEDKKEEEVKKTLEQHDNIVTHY
Kind of experiment: pull-down; direct binding assay: FLAG-tagged protein eluted from anti-FLAG beads (1 M NaCl wash, 3×FLAG peptide) was incubated for 1 h at 4°C with GFP-tagged protein held on GFP-Trap beads after harsh washes (1% SDS; 1 M NaCl, 1% Triton X-100); washes with 300 mM NaCl; immunoblot. The following applies: both partners purified. In general terms: Immunoblotting shows a protein as a band on a membrane.

B1: Sec16A (650–776)–GFP (domain or fragment, human, UniProt O15027 650-776, looked up)
chain: ALPDASPGNLEQPPDNMETLCAPQVCPLPLNSTTEAVHMLPHAGAPPLDTVYPAPEKRPSARTQGPVKCESPATTLWAQSELPDFGGNVLLAPAAPALYVCAKPQPPVVQPPEEAMSGQQSRNPSSA
notes: source: HEK293T, transfected, in lysate (co-precipitation); not shown: GFP, C-terminal, kept
As for B1, the binding result is “binds”.
